Biological target: (Gly)5–PIP5K1A (aa 1–546), purified human PIP5K1A (human, UniProt Q99755 1-546)
Test: cell-based or functional assay

Sequence of (Gly)5–PIP5K1A (aa 1–546), purified human PIP5K1A (Q99755 other isoform, or with tags, fused parts or gaps): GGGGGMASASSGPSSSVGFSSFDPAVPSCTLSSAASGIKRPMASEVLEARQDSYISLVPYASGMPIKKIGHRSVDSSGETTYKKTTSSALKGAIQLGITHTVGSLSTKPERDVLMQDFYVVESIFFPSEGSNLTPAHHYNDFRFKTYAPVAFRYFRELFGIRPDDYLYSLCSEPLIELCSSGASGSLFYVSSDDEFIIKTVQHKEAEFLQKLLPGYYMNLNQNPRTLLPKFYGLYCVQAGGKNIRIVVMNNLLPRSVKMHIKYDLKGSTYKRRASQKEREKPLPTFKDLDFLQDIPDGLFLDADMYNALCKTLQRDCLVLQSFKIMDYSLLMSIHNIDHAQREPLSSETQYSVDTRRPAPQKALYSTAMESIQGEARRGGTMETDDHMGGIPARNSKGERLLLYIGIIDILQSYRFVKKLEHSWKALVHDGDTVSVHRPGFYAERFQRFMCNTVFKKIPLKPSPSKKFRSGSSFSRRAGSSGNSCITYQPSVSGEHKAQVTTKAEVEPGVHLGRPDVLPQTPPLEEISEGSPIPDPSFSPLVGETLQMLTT

B1: (Gly)5–PIP4K2A (aa 1–406), purified human PIP4K2A (enzyme)
chain: GGGGGMATPGNLGSSVLASKTKTKKKHFVAQKVKLFRASDPLLSVLMWGVNHSINELSHVQIPVMLMPDDFKAYSKIKVDNHLFNKENMPSHFKFKEYCPMVFRNLRERFGIDDQDFQNSLTRSAPLPNDSQARSGARFHTSYDKRYIIKTITSEDVAEMHNILKKYHQYIVECHGITLLPQFLGMYRLNVDGVEIYVIVTRNVFSHRLSVYRKYDLKGSTVAREASDKEKAKELPTLKDNDFINEGQKIYIDDNNKKVFLEKLKKDVEFLAQLKLMDYSLLVGIHDVERAEQEEVECEENDGEEEGESDGTHPVGTPPDSPGNTLNSSPPLAPGEFDPNIDVYGIKCHENSPRKEVYFMAIIDILTHYDAKKKAAHAAKTVKHGAGAEISTVNPEQYSKRFLDFIGHILT
modifications: fluorescently labelled LPETGG peptide (Alexa Fluor 488, Alexa Fluor 647 or Cy5) ligated by sortase onto the N-terminal (Gly)5 motif
With B1 the “kinetics of PI(4,5)P2 production on PI4P-containing supported lipid bilayers, 1 nM PIP5K1A with or without 50 nM PIP4K2A; time to completion of the reaction” value was 2 fold (reaction completion time).

Source: paper PMC10482388, “A novel homeostatic mechanism tunes PI(4,5)P2-dependent signaling at the plasma membrane” (Journal of Cell Science, 2023)
